The data set “cross-linking” deals with the molecule itself. In words: cross-linking.
The next data set deals with T1, CYP1A2 (Oryctolagus cuniculus, UniProt P00187).
T1 chain: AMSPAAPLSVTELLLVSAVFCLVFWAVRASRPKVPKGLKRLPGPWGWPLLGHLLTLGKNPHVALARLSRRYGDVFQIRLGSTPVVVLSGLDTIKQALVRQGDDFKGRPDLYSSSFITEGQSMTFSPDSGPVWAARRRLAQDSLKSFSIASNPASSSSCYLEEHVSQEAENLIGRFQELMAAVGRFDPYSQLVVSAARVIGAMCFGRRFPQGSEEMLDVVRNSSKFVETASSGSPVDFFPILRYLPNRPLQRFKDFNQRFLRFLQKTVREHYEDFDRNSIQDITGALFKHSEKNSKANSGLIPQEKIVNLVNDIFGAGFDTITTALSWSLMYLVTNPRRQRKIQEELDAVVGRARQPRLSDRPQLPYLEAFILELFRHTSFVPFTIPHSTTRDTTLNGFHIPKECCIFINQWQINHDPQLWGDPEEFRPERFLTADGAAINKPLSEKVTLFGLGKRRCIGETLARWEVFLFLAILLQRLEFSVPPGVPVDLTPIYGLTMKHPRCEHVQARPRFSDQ
Put plainly: enzyme activity titration.

Where “and” joins values, the source holds several entries; their conditions need not be identical. Equal entries are not always repeated.

B1: Cytochrome P450 1A2 (CYP1A2), isolated from rabbit liver microsomes (enzyme, UniProt P00187 1-516, looked up)
chain: MAMSPAAPLSVTELLLVSAVFCLVFWAVRASRPKVPKGLKRLPGPWGWPLLGHLLTLGKNPHVALARLSRRYGDVFQIRLGSTPVVVLSGLDTIKQALVRQGDDFKGRPDLYSSSFITEGQSMTFSPDSGPVWAARRRLAQDSLKSFSIASNPASSSSCYLEEHVSQEAENLIGRFQELMAAVGRFDPYSQLVVSAARVIGAMCFGRRFPQGSEEMLDVVRNSSKFVETASSGSPVDFFPILRYLPNRPLQRFKDFNQRFLRFLQKTVREHYEDFDRNSIQDITGALFKHSEKNSKANSGLIPQEKIVNLVNDIFGAGFDTITTALSWSLMYLVTNPRRQRKIQEELDAVVGRARQPRLSDRPQLPYLEAFILELFRHTSFVPFTIPHSTTRDTTLNGFHIPKECCIFINQWQINHDPQLWGDPEEFRPERFLTADGAAINKPLSEKVTLFGLGKRRCIGETLARWEVFLFLAILLQRLEFSVPPGVPVDLTPIYGLTMKHPRCEHVQARPRFSDQ
B1: the “stoichiometry N” value in the data set “cross-linking” was 2 and 4 and 5 and 6.

B2: POR (protein)
chain: MADSHGDTGATMPEAAAQEASVFSMTDVVLFSLIVGLITYWFLFRKKKEEVPEFTKIQAPTSSSVKESSFVEKMKKTGRNIVVFYGSQTGTAEEFANRLSKDAHRYGMRGMAADPEEYDLADLSSLPEINNALAVFCMATYGEGDPTDNAQDFYDWLQETDVDLSGVKYAVFGLGNKTYEHFNAMGKYVDQRLEQLGAQRIFELGMGDDDANLEEDFITWREQFWPAVCEHFGVEATGEESSIRQYELVLHTDIDVAKVYQGEMGRLKSYENQKPPFDAKNPFLATVTTNRKLNQGTERHLMHLELDISDSKIRYESGDHVAVYPANDSALVNQLGEILGADLDVVMSLNNLDEESNKKHPFPCPTSYRTALTYYLDITNPPRTNVLYELAQYAADPAEQEQLRKMASSSGEGKELYLSWVVEARRHILAILQDYPSLRPPIDHLCELLPRLQARYYSIASSSKVHPNSVHICAVAVEYETKAGRLNKGVATSWLRAKEPAGENGGRALVPMFVRKSQFRLPFKATTPVIMVGPGTGVAPFIGFIQERAWLRQQGKEVGETLLYYGCRRAAEDYLYREELAGFQKDGTLSQLNVAFSREQAQKVYVQHLLRRDKEHLWRLIHEGGAHIYVCGDARNMARDVQNTFYDIVAELGAMEHAQAVDYVKKLMTKGRYSLDVWS
For B2, the Kd with CYP1A2 was 12 nM.

For the origin of these results see paper PMC3518449 (The Biochemical journal, 2012).
